According to patent US20250236673A1 (Ablynx, published 2025):
Where a chain is given by its changes, count along the chain named. In names and notes the source's numbering stands.

T1: recombinant human CEACAM5 (human, UniProt P06731 35-685, limits assumed)
T1 construct: Immobilised by amine coupling on a CM5 chip
T1 sequence (looked up): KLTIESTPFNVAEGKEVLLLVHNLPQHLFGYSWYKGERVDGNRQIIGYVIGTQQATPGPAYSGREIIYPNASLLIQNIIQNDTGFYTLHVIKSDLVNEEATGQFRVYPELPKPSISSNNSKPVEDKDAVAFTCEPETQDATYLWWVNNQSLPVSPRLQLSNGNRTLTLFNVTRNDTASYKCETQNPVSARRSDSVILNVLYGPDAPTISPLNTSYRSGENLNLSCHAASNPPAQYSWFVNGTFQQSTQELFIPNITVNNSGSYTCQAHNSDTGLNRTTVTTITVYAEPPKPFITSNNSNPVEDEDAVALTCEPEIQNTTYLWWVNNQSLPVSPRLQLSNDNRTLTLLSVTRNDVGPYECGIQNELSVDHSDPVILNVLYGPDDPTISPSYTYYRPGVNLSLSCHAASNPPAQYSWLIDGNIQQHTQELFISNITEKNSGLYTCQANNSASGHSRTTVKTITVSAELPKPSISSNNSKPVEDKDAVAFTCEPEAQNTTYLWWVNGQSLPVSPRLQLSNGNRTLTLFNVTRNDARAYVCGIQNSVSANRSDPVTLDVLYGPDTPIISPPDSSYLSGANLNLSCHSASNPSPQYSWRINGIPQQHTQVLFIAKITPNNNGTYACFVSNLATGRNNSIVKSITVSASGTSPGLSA

B1: T028501790 (VHH)
VHH: EVQLVESGGGVVQPGGSLRLSCAASGLTFSTYTMGWFRQAPGEEREFVAAIIWSGSNTYYADSVKGRFTISRDNAKNTVYLQMNSLRPEDTALYYCAAQHFGPIGLTTRGYHYWGQGTLVTVSS
notes: K43E vs precursor T028501789; also called A0315007E07(K43E)
B2: T028501791 (VHH)
VHH: B1 VHH with E43Q
notes: K43Q vs precursor T028501789; also called A0315007E07(K43Q)
B3: T028501792 (VHH)
VHH: B1 VHH with E43R
notes: K43R vs precursor T028501789; also called A0315007E07(K43R)
B4: T028501793 (VHH)
VHH: B1 VHH with E43H
notes: K43H vs precursor T028501789; also called A0315007E07(K43H)
B5: T028501794 (VHH)
VHH: B1 VHH with E43A
notes: K43A (Kabat) vs precursor T028501789; also called A0315007E07(K43A)
B6: T028501795 (VHH)
VHH: B1 VHH with E43K, K65E
notes: K64E vs precursor T028501789; also called A0315007E07(K64E)
B7: T028501796 (VHH)
VHH: B1 VHH with E43K, K65Q
notes: K64Q vs precursor T028501789; also called A0315007E07(K64Q)
B8: T028501797 (VHH)
VHH: B1 VHH with E43K, K65R
notes: K64R vs precursor T028501789; also called A0315007E07(K64R)
B9: T028501798 (VHH)
VHH: B1 VHH with E43K, K65H
notes: K64H vs precursor T028501789; also called A0315007E07(K64H)
B10: T028501799 (VHH)
VHH: B1 VHH with E43K, K65A
notes: K64A vs precursor T028501789; also called A0315007E07(K64A)
B11: T028501800 (VHH)
VHH: B1 VHH with E43K, K76E
notes: K75E vs precursor T028501789; also called A0315007E07(K75E)
B12: T028501801 (VHH)
VHH: B1 VHH with E43K, K76Q
notes: K75Q vs precursor T028501789; also called A0315007E07(K75Q)
B13: T028501802 (VHH)
VHH: B1 VHH with E43K, K76R
notes: K75R vs precursor T028501789; also called A0315007E07(K75R)
B14: T028501803 (VHH)
VHH: B1 VHH with E43K, K76H
notes: K75H vs precursor T028501789; also called A0315007E07(K75H)
B15: T028501804 (VHH)
VHH: B1 VHH with E43K, K76A
notes: K75A vs precursor T028501789; also called A0315007E07(K75A)
B16: T028501817 (VHH)
VHH: EVQLVESGGGVVQPGGSLRLSCAASGHTFSEYALGWFRQAPGKEREFVAAINWGGGWTYYADSVKGRFTISRDNAKNTLYLQMNSLRPEDTALYYCAASSDYAGGNPTGYPYWGQGTLVTVSS
notes: also called A031500099; A0315024B02(L11V, A14P, D16G S23A, M43K, Q64K, K83R, G85E, G89L)
B17: T028501818 (VHH)
VHH: B16 VHH with K43E
notes: K43E vs precursor T028501817; also called A0315024B02(M43E, Q64K, K83R)
B18: T028501819 (VHH)
VHH: B16 VHH with K43Q
notes: K43Q vs precursor T028501817; also called A0315024B02(M43Q, Q64K, K83R)

Target: T1, recombinant human CEACAM5
Test: SPR Biacore 8K+, CEACAM5 amine-coupled on CM5, ISVD analyte, 1:1 fit

Binder	Kd	koff	kon
B1	1.71 nM	0.00085 s⁻¹	498000 M⁻¹ s⁻¹
B2	1.45 nM	0.00087 s⁻¹	602000 M⁻¹ s⁻¹
B3	1.23 nM	0.00092 s⁻¹	747000 M⁻¹ s⁻¹
B4	1.22 nM	0.000877 s⁻¹	719000 M⁻¹ s⁻¹
B5	1.54 nM	0.000865 s⁻¹	562000 M⁻¹ s⁻¹
B6	3.55 nM	0.000914 s⁻¹	258000 M⁻¹ s⁻¹
B7	2.24 nM	0.000929 s⁻¹	415000 M⁻¹ s⁻¹
B8	1.59 nM	0.00107 s⁻¹	675000 M⁻¹ s⁻¹
B9	2.39 nM	0.000962 s⁻¹	402000 M⁻¹ s⁻¹
B10	2.54 nM	0.000976 s⁻¹	385000 M⁻¹ s⁻¹
B11	1.72 nM	0.000911 s⁻¹	529000 M⁻¹ s⁻¹
B12	1.58 nM	0.000913 s⁻¹	579000 M⁻¹ s⁻¹
B13	1.39 nM	0.000897 s⁻¹	643000 M⁻¹ s⁻¹
B14	1.46 nM	0.00084 s⁻¹	574000 M⁻¹ s⁻¹
B15	1.56 nM	0.000917 s⁻¹	586000 M⁻¹ s⁻¹
B16	8.9 nM	0.00212 s⁻¹	238000 M⁻¹ s⁻¹
B17	10.5 nM	0.00226 s⁻¹	215000 M⁻¹ s⁻¹
B18	8.74 nM	0.00199 s⁻¹	228000 M⁻¹ s⁻¹
